Results taken from the supplement of paper PMC9112550, “Optimization of the antimicrobial peptide Bac7 by deep mutational scanning” (BMC Biology, 2022).

Test system: Escherichia coli TOP10
Assay: shrunken log2 fold change of peptide-encoding DNA abundance (4.5 h post-induction vs induction); higher = less antimicrobial activity (less host growth inhibition)
Conditions: time post-induction: 4.5 h; library: site-saturation at positions 5, 18, 19, 20
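Note: peptides expressed intracellularly from a pBAD plasmid library in pooled LB shake-flask culture, induced with 0.3% L-arabinose, DNA abundance read by NGS, three biological replicates, DESeq2 with apeglm shrinkage.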

Question: Which “shrunken log2 fold change” value does the source give for RRIRQRPPRLPRPRPRPVWDPRP here?
Answer: The value was -0.104.

Question: Which “shrunken log2 fold change” value does the source give for RRIRQRPPRLPRPRPRPVWHPRP here?
Answer: Its value is 0.0663.

Question: How did the “shrunken log2 fold change” value turn out when RRIRQRPPRLPRPRPRPWCDPRP was run?
Answer: Its value is -0.191.

Question: How did the “shrunken log2 fold change” value turn out when RRIRQRPPRLPRPRPRPWDDPRP was run?
Answer: Its value is -0.00146.

Question: RRIRQRPPRLPRPRPRPWELPRP was tested. Which “shrunken log2 fold change” value did it give?
Answer: Its value is 0.0585.

Question: RRIRQRPPRLPRPRPRPWILPRP was tested. Which “shrunken log2 fold change” value did it give?
Answer: The value was -0.00158.

Question: With RRIRQRPPRLPRPRPRPWKQPRP as the sequence, how does the “shrunken log2 fold change” value read?
Answer: Its value is -0.08.

Question: RRIRQRPPRLPRPRPRPWKYPRP was tested. Which “shrunken log2 fold change” value did it give?
Answer: Its value is -0.149.

Question: RRIRQRPPRLPRPRPRPWMIPRP was tested. Which “shrunken log2 fold change” value did it give?
Answer: The value was 0.0219.

Question: How did the “shrunken log2 fold change” value turn out when RRIRQRPPRLPRPRPRPWMSPRP was run?
Answer: Its value is -0.0167.

Question: How did the “shrunken log2 fold change” value turn out when RRIRQRPPRLPRPRPRPWMTPRP was run?
Answer: Its value is -0.00186.

Question: With RRIRQRPPRLPRPRPRPWNRPRP as the sequence, how does the “shrunken log2 fold change” value read?
Answer: Its value is 0.013.

Question: For RRIRQRPPRLPRPRPRPWPAPRP, which “shrunken log2 fold change” value is on record?
Answer: Its value is 0.0128.

Question: How did the “shrunken log2 fold change” value turn out when RRIRQRPPRLPRPRPRPWQMPRP was run?
Answer: The value was -0.0417.

Question: RRIRQRPPRLPRPRPRPWQYPRP was tested. Which “shrunken log2 fold change” value did it give?
Answer: The value was -0.366.

Question: For RRIRQRPPRLPRPRPRPWRAPRP, which “shrunken log2 fold change” value is on record?
Answer: The value was 0.0749.

Question: With RRIRQRPPRLPRPRPRPWSEPRP as the sequence, how does the “shrunken log2 fold change” value read?
Answer: Its value is -0.266.

Question: Which “shrunken log2 fold change” value does the source give for RRIRQRPPRLPRPRPRPWSSPRP here?
Answer: Its value is -0.0435.

Question: For RRIRQRPPRLPRPRPRPWSVPRP, which “shrunken log2 fold change” value is on record?
Answer: The value was -0.0201.

Question: Which “shrunken log2 fold change” value does the source give for RRIRQRPPRLPRPRPRPWTCPRP here?
Answer: Its value is 0.0112.

Question: Which “shrunken log2 fold change” value does the source give for RRIRQRPPRLPRPRPRPWVGPRP here?
Answer: The value was -0.0518.

Question: For RRIRQRPPRLPRPRPRPWWPPRP, which “shrunken log2 fold change” value is on record?
Answer: Its value is -0.119.

Question: How did the “shrunken log2 fold change” value turn out when RRIRQRPPRLPRPRPRPWYRPRP was run?
Answer: Its value is -0.49.

Question: With RRIRQRPPRLPRPRPRPYAKPRP as the sequence, how does the “shrunken log2 fold change” value read?
Answer: Its value is -0.122.

Question: With RRIRQRPPRLPRPRPRPYATPRP as the sequence, how does the “shrunken log2 fold change” value read?
Answer: The value was -0.326.

Question: Which “shrunken log2 fold change” value does the source give for RRIRQRPPRLPRPRPRPYCRPRP here?
Answer: Its value is -0.00101.

Question: With RRIRQRPPRLPRPRPRPYESPRP as the sequence, how does the “shrunken log2 fold change” value read?
Answer: The value was -0.261.

Question: Which “shrunken log2 fold change” value does the source give for RRIRQRPPRLPRPRPRPYFSPRP here?
Answer: Its value is -0.451.

Question: How did the “shrunken log2 fold change” value turn out when RRIRQRPPRLPRPRPRPYGCPRP was run?
Answer: The value was -0.00141.

Question: RRIRQRPPRLPRPRPRPYIGPRP was tested. Which “shrunken log2 fold change” value did it give?
Answer: The value was -0.681.

Question: RRIRQRPPRLPRPRPRPYKEPRP was tested. Which “shrunken log2 fold change” value did it give?
Answer: The value was -0.0137.

Question: How did the “shrunken log2 fold change” value turn out when RRIRQRPPRLPRPRPRPYLSPRP was run?
Answer: Its value is 0.00493.

Question: Which “shrunken log2 fold change” value does the source give for RRIRQRPPRLPRPRPRPYNEPRP here?
Answer: Its value is -0.184.

Question: RRIRQRPPRLPRPRPRPYNSPRP was tested. Which “shrunken log2 fold change” value did it give?
Answer: The value was -0.198.

Question: How did the “shrunken log2 fold change” value turn out when RRIRQRPPRLPRPRPRPYQTPRP was run?
Answer: The value was -0.421.

Question: With RRIRQRPPRLPRPRPRPYSGPRP as the sequence, how does the “shrunken log2 fold change” value read?
Answer: The value was -0.126.

Question: Which “shrunken log2 fold change” value does the source give for RRIRQRPPRLPRPRPRPYTDPRP here?
Answer: Its value is -0.209.

Question: With RRIRQRPPRLPRPRPRPYTVPRP as the sequence, how does the “shrunken log2 fold change” value read?
Answer: The value was -0.104.

Question: For RRIRQRPPRLPRPRPRPYVAPRP, which “shrunken log2 fold change” value is on record?
Answer: The value was -0.713.

Question: For RRIRQRPPRLPRPRPRPYVRPRP, which “shrunken log2 fold change” value is on record?
Answer: Its value is -0.216.

Question: For RRIRRRPPRLPRPRPRPADPPRP, which “shrunken log2 fold change” value is on record?
Answer: The value was 0.403.

Question: With RRIRRRPPRLPRPRPRPADRPRP as the sequence, how does the “shrunken log2 fold change” value read?
Answer: Its value is 0.00311.

Question: For RRIRRRPPRLPRPRPRPAEMPRP, which “shrunken log2 fold change” value is on record?
Answer: Its value is 0.219.

Question: For RRIRRRPPRLPRPRPRPAGRPRP, which “shrunken log2 fold change” value is on record?
Answer: Its value is 0.41.

Question: RRIRRRPPRLPRPRPRPAILPRP was tested. Which “shrunken log2 fold change” value did it give?
Answer: Its value is -0.017.

Question: For RRIRRRPPRLPRPRPRPAKWPRP, which “shrunken log2 fold change” value is on record?
Answer: Its value is 0.123.

Question: How did the “shrunken log2 fold change” value turn out when RRIRRRPPRLPRPRPRPAMFPRP was run?
Answer: Its value is 0.372.

Question: For RRIRRRPPRLPRPRPRPAPGPRP, which “shrunken log2 fold change” value is on record?
Answer: The value was 0.812.

Question: RRIRRRPPRLPRPRPRPAQCPRP was tested. Which “shrunken log2 fold change” value did it give?
Answer: Its value is 0.152.

Question: For RRIRRRPPRLPRPRPRPAQFPRP, which “shrunken log2 fold change” value is on record?
Answer: The value was 0.135.

Question: RRIRRRPPRLPRPRPRPASAPRP was tested. Which “shrunken log2 fold change” value did it give?
Answer: The value was 0.227.

Question: For RRIRRRPPRLPRPRPRPASPPRP, which “shrunken log2 fold change” value is on record?
Answer: Its value is 0.314.

Question: RRIRRRPPRLPRPRPRPATHPRP was tested. Which “shrunken log2 fold change” value did it give?
Answer: Its value is 0.434.

Question: Which “shrunken log2 fold change” value does the source give for RRIRRRPPRLPRPRPRPATMPRP here?
Answer: Its value is 0.876.

Question: RRIRRRPPRLPRPRPRPAVEPRP was tested. Which “shrunken log2 fold change” value did it give?
Answer: Its value is -0.0125.

Question: For RRIRRRPPRLPRPRPRPAVSPRP, which “shrunken log2 fold change” value is on record?
Answer: Its value is -0.136.

Question: With RRIRRRPPRLPRPRPRPCAAPRP as the sequence, how does the “shrunken log2 fold change” value read?
Answer: The value was 0.743.

Question: RRIRRRPPRLPRPRPRPCAMPRP was tested. Which “shrunken log2 fold change” value did it give?
Answer: Its value is -0.0039.

Question: RRIRRRPPRLPRPRPRPCCVPRP was tested. Which “shrunken log2 fold change” value did it give?
Answer: The value was 0.415.

Question: Which “shrunken log2 fold change” value does the source give for RRIRRRPPRLPRPRPRPCDIPRP here?
Answer: Its value is 0.181.

Question: For RRIRRRPPRLPRPRPRPCIGPRP, which “shrunken log2 fold change” value is on record?
Answer: The value was -0.328.

Question: Which “shrunken log2 fold change” value does the source give for RRIRRRPPRLPRPRPRPCKSPRP here?
Answer: Its value is 0.263.

Question: RRIRRRPPRLPRPRPRPCLAPRP was tested. Which “shrunken log2 fold change” value did it give?
Answer: The value was 0.242.

Question: How did the “shrunken log2 fold change” value turn out when RRIRRRPPRLPRPRPRPCMCPRP was run?
Answer: Its value is -0.382.

Question: For RRIRRRPPRLPRPRPRPCQSPRP, which “shrunken log2 fold change” value is on record?
Answer: The value was 0.0448.

Question: How did the “shrunken log2 fold change” value turn out when RRIRRRPPRLPRPRPRPCQYPRP was run?
Answer: Its value is -0.137.

Question: How did the “shrunken log2 fold change” value turn out when RRIRRRPPRLPRPRPRPCRDPRP was run?
Answer: The value was 0.0656.

Question: For RRIRRRPPRLPRPRPRPCRRPRP, which “shrunken log2 fold change” value is on record?
Answer: Its value is 0.0946.

Question: RRIRRRPPRLPRPRPRPCRVPRP was tested. Which “shrunken log2 fold change” value did it give?
Answer: The value was 0.0136.

Question: With RRIRRRPPRLPRPRPRPCSCPRP as the sequence, how does the “shrunken log2 fold change” value read?
Answer: Its value is -0.017.

Question: For RRIRRRPPRLPRPRPRPCSFPRP, which “shrunken log2 fold change” value is on record?
Answer: Its value is -0.0171.

Question: With RRIRRRPPRLPRPRPRPCVLPRP as the sequence, how does the “shrunken log2 fold change” value read?
Answer: The value was -0.027.

Question: Which “shrunken log2 fold change” value does the source give for RRIRRRPPRLPRPRPRPCVMPRP here?
Answer: Its value is 0.113.

Question: RRIRRRPPRLPRPRPRPCWHPRP was tested. Which “shrunken log2 fold change” value did it give?
Answer: Its value is -0.0148.

Question: For RRIRRRPPRLPRPRPRPCWMPRP, which “shrunken log2 fold change” value is on record?
Answer: Its value is 0.415.
